Laboratory results: publication PMC8216552
Where “and” joins values, the source holds several entries; their conditions need not be identical. Equal values may be shown once.

Key:
[1] = target: stabilized soluble CON-S envelope trimer (stabilized CON-S SOSIP gp140) (HIV-1 (group M consensus))
[2] = substrate: CON-S gp120 with the N362 glycosylation site (HIV-1 (group M consensus))
[3] = substrate: CON-S gp120 (HIV-1 (group M consensus)); experiment: ELISA; direct ELISA: HIV-1 envelope protein (2 ug/mL) in sodium bicarbonate buffer coated on 384-well plates overnight at 4 C; serially diluted antibodies 90 min; detected with HRP anti-IgG Fc; titres as area under the log-transformed curve (log AUC)
[4] = target: stabilized soluble CON-S envelope trimer (stabilized CON-S SOSIP gp140) (HIV-1 (group M consensus)); experiment: negative stain electron microscopy; chimeric CON-S DS.SOSIP-664 trimers with a 10-fold molar excess of Fab, 1 h at room temperature; uranyl formate stain; 2D classes and 3D reconstruction (RELION)

B1: DH840.1 IgG (antibody, V domains shown)
VH: QVQLKESGPGLVRPSETLSLTCAVSGTSINSAYAWGWVRLPPGKGLEWIMTVYTSTGNTYSDPSLKSRVTISKDTSKNQFSLRLSSVTVEDTAVYFCARADGSDSGWPHFDNWGQGLLVTVSS
VL: EIMVTQSPATLSVSPGERATLSCRASQSVRNRIAWYQQKPGQSPRLLIYDASIRAPGIPDRLSGSGSGTEFTLTINSLEPSDVAVYFCQLEANWLTFGGGTKVEIK
Q: B1 was tested. Which maximum percent neutralization of wild-type CON-S pseudovirus (TZM-bl cells) [1] did it give?
A: The maximum percent neutralization of wild-type CON-S pseudovirus (TZM-bl cells) was 83%.

Q: What about the maximum percent neutralization of CON-S pseudovirus with the N362 glycan (TZM-bl cells) [2] of the same binder?
A: Its maximum percent neutralization of CON-S pseudovirus with the N362 glycan (TZM-bl cells) is 45%.

B2: DH840.1 W100bA (antibody, V domains shown)
VH: QVQLKESGPGLVRPSETLSLTCAVSGTSINSAYAWGWVRLPPGKGLEWIMTVYTSTGNTYSDPSLKSRVTISKDTSKNQFSLRLSSVTVEDTAVYFCARADGSDSGAPHFDNWGQGLLVTVSS
VL: EIMVTQSPATLSVSPGERATLSCRASQSVRNRIAWYQQKPGQSPRLLIYDASIRAPGIPDRLSGSGSGTEFTLTINSLEPSDVAVYFCQLEANWLTFGGGTKVEIK
Q: Which percent reduction of binding against wild-type DH840.1 [3] does the source give for B2 here?
A: The percent reduction of binding against wild-type DH840.1 was 64%.

B3: DH840.1 Fab (Fab, V domains shown)
VH: QVQLKESGPGLVRPSETLSLTCAVSGTSINSAYAWGWVRLPPGKGLEWIMTVYTSTGNTYSDPSLKSRVTISKDTSKNQFSLRLSSVTVEDTAVYFCARADGSDSGWPHFDNWGQGLLVTVSS
VL: EIMVTQSPATLSVSPGERATLSCRASQSVRNRIAWYQQKPGQSPRLLIYDASIRAPGIPDRLSGSGSGTEFTLTINSLEPSDVAVYFCQLEANWLTFGGGTKVEIK
Q: Which results are given for B3?
A: percent of trimers bound by Fab [4]: 33%; stoichiometry N (Fab per trimer) [4]: 1

B4: DH842 Fab (Fab, V domains shown)
VH: QVQLQESGPGLMQPAETLSLTCAVSRDSIGSGYYAWGWFRQVPGKGLEWIVTIYTSTGNIYDESPLKSRVTISRDTSKNQFSLKLTSVTPADTAVYFCAREGCNTVFCSAGWFDVWGPGLLVTVSS
VL: QAVLTQPTALSASPGASARLTCTLRSGISVADYRIFWYQQRPGSPPRYLLNYRTDSDHHQGSGVPSRFSGSKDDSANTGFLVISGLQSEDEADYHCMIRHNTAYIFGGGTRLTLL
Q: Which results are given for B4?
A: percent of analyzed Envs with one Fab bound [4]: 34%; percent of analyzed Envs with two Fabs bound [4]: 53%

B5: DH845.1 Fab (Fab, V domains shown)
VH: QVQLQESGPGLVKPSETLSLTCAVSGGSMSSVYQGWGWIRQPPGKGLEWIATTYTSTGNIYYNPSLKGRGTVSRDTSKNQFSLKLSAVTAADTAVYYCARLNLGDSGDYTGVSEYFDFWGQGALVTVSS
VL: AIQLTQSPSALSASVGDRVTISCRASQNIYSNLAWYQQKPGKAPKLLIFGASRLQSGIPSRFSGSGSGTDFTLTISSLQPEDSATYYCQQVYSNFYSFGQGTKVEIK
Q: B5 was tested. Which stoichiometry N (Fabs per trimer) [4] did it give?
A: Its stoichiometry N (Fabs per trimer) is 2 and 3.

B6: DH846.1 Fab (Fab, V domains shown)
VH: QLQLQESGPGLVKPSETLSLTCDVSGVSISSNYGWGWIRQPPGKGLDWIVTIYGGTGNTYYAPSLEGRVAISKDASKNQFSLRLNSVTAADTAVYYCARKITYSSGWYYFDYWGQGVLVAVSS
VL: EIVMTQSPATLSLSPGERATLSCRASQSVSSRLAWYQQKPGQAPRLLIYDASNRATGIPDRFSGSGSGTEFTLTISGLEPEDVAVYFCQEDHNWSTFGQGTKVEIK
Q: B6 was tested. Which stoichiometry N (Fabs per trimer) [4] did it give?
A: Its stoichiometry N (Fabs per trimer) is 2 and 3.
